Measured values published in PMC6525264.

Tests used:
[1] = Western blot of media, sAPPβ (1A9); conditions: glycan lost; control: empty vector (Hyg) cell line
[2] = flow cytometry, cell surface APP, non-permeabilised cells; conditions: glycan lost; control: APPWT cell line

Row | Substance | other: proteolytic processing [1] | localisation_or_trafficking [2]
1 | β-Amyloid precursor protein (APP695): APPN467K | decreases | decreases
2 | β-Amyloid precursor protein (APP695): APPN496K | decreases | decreases
